From PMC7839550 (Angewandte Chemie (International Ed. in English), 2020)

T1: AtHMT (Arabidopsis thaliana, UniProt Q0WP12, V140T)
T1 sequence (Q0WP12 1-227 V140T): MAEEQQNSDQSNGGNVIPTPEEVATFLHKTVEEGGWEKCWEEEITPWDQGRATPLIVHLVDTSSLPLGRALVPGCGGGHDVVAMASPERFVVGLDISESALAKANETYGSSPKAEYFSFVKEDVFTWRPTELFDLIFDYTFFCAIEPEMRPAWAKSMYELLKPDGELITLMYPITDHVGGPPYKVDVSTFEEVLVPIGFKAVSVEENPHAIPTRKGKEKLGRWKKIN

T2: AtHMT (Arabidopsis thaliana, UniProt Q0WP12)
T2 sequence (Q0WP12 1-227): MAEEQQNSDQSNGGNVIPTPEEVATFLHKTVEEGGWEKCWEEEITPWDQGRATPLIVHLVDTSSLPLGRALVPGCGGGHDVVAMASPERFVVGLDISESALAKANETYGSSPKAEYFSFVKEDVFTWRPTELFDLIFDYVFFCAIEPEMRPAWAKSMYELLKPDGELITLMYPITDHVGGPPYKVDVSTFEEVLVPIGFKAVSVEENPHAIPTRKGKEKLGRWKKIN

T3: RsHMT (Raphanus sativus, UniProt C6L2E7)
T3 sequence (C6L2E7 1-226): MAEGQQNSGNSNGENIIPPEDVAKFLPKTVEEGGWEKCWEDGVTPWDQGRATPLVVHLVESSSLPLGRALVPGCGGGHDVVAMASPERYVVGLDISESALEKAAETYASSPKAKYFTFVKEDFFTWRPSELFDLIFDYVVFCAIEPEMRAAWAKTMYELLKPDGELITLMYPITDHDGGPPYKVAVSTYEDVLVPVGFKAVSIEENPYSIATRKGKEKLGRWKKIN


Tests used:
[1] = target: T1, AtHMT; assay: kinetic analysis of methyl transfer to SAH; assay type: biochemical; conditions: read-out: Methyltransferase activity / K M, MeI; co-substrate SAH
[2] = target: T2, AtHMT; assay: kinetic analysis of methyl transfer to SAH; assay type: biochemical; conditions: read-out: Methyltransferase activity / K M, MeI; co-substrate SAH
[3] = target: T3, RsHMT; assay: alkylation of SAH, specific activity; assay type: biochemical; conditions: co-substrate SAH
[4] = substrate: CCI; assay: kinetic analysis of ethyl transfer to SAH; assay type: biochemical, Arabidopsis thaliana; conditions: co-substrate SAH

| Molecule | Km [1] | Km [2] | alkylation of SAH, specific activity [3] | Km [4] | kcat [4] | kcat/Km [4] |
| --- | --- | --- | --- | --- | --- | --- |
| CI [methyl iodide] | 4.7 ± 0.76 mM | 1.43 ± 0.19 mM | All three HMTs were active using methyl iodide | – | – | – |
| CCI [ethyl iodide] | – | – | all three enzymes had promiscuous activity against ethyl iodide | – | – | – |
| AtHMT (Arabidopsis thaliana) (protein) MAEEQQNSDQSNGGNVIPTPEEVATFLHKTVEEGGWEKCWEEEITPWDQGRATPLIVHLVDTSSLPLGRALVPGCGGGHDVVAMASPERFVVGLDISESALAKANETYGSSPKAEYFSFVKEDVFTWRPTELFDLIFDYVFFCAIEPEMRPAWAKSMYELLKPDGELITLMYPITDHVGGPPYKVDVSTFEEVLVPIGFKAVSVEENPHAIPTRKGKEKLGRWKKIN | – | – | – | 9.36 ± 1.66 mM | 0.006 ± 0.0005 s⁻¹ | 0.633 M⁻¹ s⁻¹ |
| AtHMT (Arabidopsis thaliana; V140T) (protein) MAEEQQNSDQSNGGNVIPTPEEVATFLHKTVEEGGWEKCWEEEITPWDQGRATPLIVHLVDTSSLPLGRALVPGCGGGHDVVAMASPERFVVGLDISESALAKANETYGSSPKAEYFSFVKEDVFTWRPTELFDLIFDYTFFCAIEPEMRPAWAKSMYELLKPDGELITLMYPITDHVGGPPYKVDVSTFEEVLVPIGFKAVSVEENPHAIPTRKGKEKLGRWKKIN | – | – | – | 11.14 ± 1.52 mM | 0.0397 ± 0.00267 s⁻¹ | 3.57 M⁻¹ s⁻¹ |
